Measurements reported in patent US11951128B2, “Compositions and methods for the isolation and/or generation of specific CD4+ and CD8+ T-cell subsets” (LA JOLLA INSTITUTE FOR ALLERGY AND IMMUNOLOGY, priority 2017, dated 2024).

Experiments:
[1] = system: B16 tumor cells; experiment: MHC class II expression on B16 tumor cells; assay type: cell-based, mouse
Text: As a result, most transferred CD4 CTL died in vivo. In addition, activated anti-tumor specific CD8 CTL kill the tumor cells in response to detecting their Ag on the tumor cells presented by MHC class I (OVA Ag on the B16-OVA). In addition they also secrete IFNg which in turn upregulate MHC class II expression on the tumor cells (right panel). Anti-tumor reactive CD8 T-cells become restrained (induction of PD-1) or undergo TL- or activation-induced cell death. Therefore, a combination of anti-tumor CD8 T-cells (or NK T-cells or DN T-cells) and anti-tumor CD4 CTL which can kill tumor cells once MHC class II is induced, can be a powerful anti-tumor immunotherapy.

[2] = system: CD8ab T-cells; experiment: induction of CD8αα on in vitro activated CD8ab T-cells, measured with TL tetramer; assay type: cell-based, mice; details: for generation of CD8αα effector memory precursor cells: WT, IL10−/− or IL21−/− CD8ab T-cells, anti-CD3/CD28, with or without IL12
Experimental: CD8ab T-cells isolated from wild type mice (WT) or IL10 deficient mice (IL10−/−), or IL21 deficient mice (IL21−/−) were activated in vitro with anti-CD3/CD28 and with or without IL12. Induction of CD8αα was measured using TL tetramer.

## IFNg: soluble cytokine, the only member of the type II class of interferons
[1]
  MHC class II (I-A^b) expression on tumor cells: induce MHC class II (I-A^b)

## IL-21: anti-inflammatory cytokine
[2]
  generation of CD8αβ TEM/RM: counteract
  generation of CD8αα effector memory precursor cells: inhibit

B1: IL-10: anti-inflammatory cytokine (protein, UniProt P22301 19-178, looked up)
Interleukin-10: SPGQGTQSENSCTHFPGNLPNMLRDLRDAFSRVKTFFQMKDQLDNLLLKESLLEDFKGYLGCQALSEMIQFYLEEVMPQAENQDPDIKAHVNSLGENLKTLRLRLRRCHRFLPCENKSKAVEQVKNAFNKLQEKGIYKAMSEFDIFINYIEAYMTMKIRN
[2]
  generation of CD8αβ TEM/RM: counteract
  generation of CD8αα effector memory precursor cells: inhibit

B2: IL-12: pro-inflammatory cytokine (protein, UniProt P29459 23-219; P29460 23-328, looked up)
Interleukin-12 subunit alpha: RNLPVATPDPGMFPCLHHSQNLLRAVSNMLQKARQTLEFYPCTSEEIDHEDITKDKTSTVEACLPLELTKNESCLNSRETSFITNGSCLASRKTSFMMALCLSSIYEDLKMYQVEFKTMNAKLLMDPKRQIFLDQNMLAVIDELMQALNFNSETVPQKSSLEEPDFYKTKIKLCILLHAFRIRAVTIDRVMSYLNAS
Interleukin-12 subunit beta: IWELKKDVYVVELDWYPDAPGEMVVLTCDTPEEDGITWTLDQSSEVLGSGKTLTIQVKEFGDAGQYTCHKGGEVLSHSLLLLHKKEDGIWSTDILKDQKEPKNKTFLRCEAKNYSGRFTCWWLTTISTDLTFSVKSSRGSSDPQGVTCGAATLSAERVRGDNKEYEYSVECQEDSACPAAEESLPIEVMVDAVHKLKYENYTSSFFIRDIIKPDPPKNLQLKPLKNSRQVEVSWEYPDTWSTPHSYFSLTFCVQVQGKSKREKKDRVFTDKTSATVICRKNASISVRAQDRYYSSSWSEWASVPCS
[2]
  generation of CD8αβ TEM/RM: promotes
  generation of CD8αα effector memory precursor cells: promotes
